# Publication PMC2872917
# What was measured:
# [1] = target: Dam1 complex (S. cerevisiae) (UniProt P53267); experiment: velocity sedimentation
# [2] = target: microtubules (UniProt Q6B856); experiment: bead-microtubule-binding assay
stoichiometry N [1],density of microtubule-attached beads (beads × mm^−2) [2],Substance
2,,Dam1 complex (from UniProt P53267 1-343; Q12248 1-94)
,7800,Ndc80 complex (from UniProt P40460 1-691; P33895 1-451)
